Assay results reported in US20070134720A1 (published 2007).
No end group written: not given here.

Experiments:
GST protein = biological target: T1, GST protein (UniProt P08515 1-218 = GST); assay: GST pulldown, SDS-PAGE and autoradiography
T1 construct: Control in the pulldown; also called control GST protein
Description: A [³⁵S]-labeled Flag-P4HA1 fused protein was prepared using the TNT-coupled Translation System (Promega Corporation) and pcDNA3-Flag-P4HA1. The fused protein was added, together with GST-Syno dTM, GST-Syno RING and GST protein, to a binding buffer containing 20 mM HEPES (pH 7.9), 100 mM NaCl, 1 mM EDTA, 0.05% Tween, 5% glycerol, 1 mM DTT, 0.2 mM NaVO₄, 5 mM NaF, and 1 mM PMSF and reacted at 4° C. for 16 hours. The resulting reaction product was developed over SDS-PAGE and its radioactivity was detected with an image analyzer (BAS2000, Fujix). The binding of GST-Syno dTM and GST-Syno RING fusion protein with [³⁵S]-labeled pcDNA3-Flag-P4HA1 was observed. In contrast, no binding was found between the control GST protein and pcDNA3-Flag-P4HA1 (FIG. 2).

[1] = biological target: T2, GST-fused P4HA1 protein (whole region of P4HA1) (human, UniProt P13674 18-534); assay: HTRF competition: 60 ng MBP-synoviolin-His and 10 ng GST-P4HA1, XL665-labeled anti-His and Eu(K)-labeled anti-GST antibodies
T2 construct: Made in E. coli; also called GST-P4HA1; GST-fused P4HA1 protein beads; not shown: GST (glutathione S-transferase) fusion partner of vector pGEX 4T-1
Description: A standard reaction mixture comprising 60 ng MBP-synoviolin-His, 10 ng GST-P4HA1, 1 mM DTT, 1 mM EDTA, 50 mM NaCl, 0.1% BSA, 0.3% DMSO, and a test compound in 15 μL of 50 mM HEPES (pH 7.5) solution was prepared using a 384-well plate. The reaction was initiated by adding 5 μL of a 50 mM HEPES solution comprising GST-P4HA1. After a 30 minute reaction at room temperature, 5 μL of a 50 mM HEPES solution comprising an Eu(K)-labeled anti-GST antibody (20000 B counts, CIS bio international), a XL665-labeled anti-His antibody (0.025 μg, CIS bio international), and 1 M K was added. The mixture was left to stand overnight at room temperature, and the fluorescence was measured using RUBYstar™.

T1 sequence (P08515 whole entry): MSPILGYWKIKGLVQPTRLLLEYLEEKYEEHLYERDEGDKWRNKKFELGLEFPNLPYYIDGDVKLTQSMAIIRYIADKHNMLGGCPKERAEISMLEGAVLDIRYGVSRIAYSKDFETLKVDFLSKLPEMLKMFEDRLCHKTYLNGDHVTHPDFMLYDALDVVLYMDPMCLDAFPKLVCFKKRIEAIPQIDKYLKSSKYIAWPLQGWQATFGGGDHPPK

Row | binding result (GST protein) | IC50 [1] [µg/mL] | Binder
1 | no binding | – | [35S]-labeled Flag-P4HA1 fused protein (enzyme, 35S label from in vitro translation (the FIG. 2 legend prints 32P), Made with the TNT-coupled Translation System from pcDNA3-Flag-P4HA1; also called pcDNA3-Flag-P4HA1; [32P]-labeled Flag-P4HA1 fused protein; not shown: Flag tag) HPGFFTSIGQMTDLIHTEKDLVTSLKDYIKAEEDKLEQIKKWAEKLDRLTSTATKDPEGFVGHPVNAFKLMKRLNTEWSELENLVLKDMSDGFISNLTIQRQYFPNDEDQVGAAKALLRLQDTYNLDTDTISKGNLPGVKHKSFLTAEDCFELGKVAYTEADYYHTELWMEQALRQLDEGEISTIDKVSVLDYLSYAVYQQGDLDKALLLTKKLLELDPEHQRANGNLKYFEYIMAKEKDVNKSASDDQSDQKTTPKKKGVAVDYLPERQKYEMLCRGEGIKMTPRRQKKLFCRYHDGNRNPKFILAPAKQEDEWDKPRIIRFHDIISDAEIEIVKDLAKPRLSRATVHDPETGKLTTAQYRVSKSAWLSGYENPVVSRINMRIQDLTGLDVSTAEELQVANYGVGGQYEPHFDFARKDEPDAFKELGTGNRIATWLFYMSDVSAGGATVFPEVGASVWPKKGTAVFWYNLFASGEGDYSTRHAACPVLVGNKWVSNKWLHERGQEFRRPCTLSELE
2 | – | 167 | DNVCIICREEMVTGAKRLDCN (cysteine pairing not given here; also: partially modified, modification not given here) [partial peptide of the partially modified synoviolin (SEQ ID NO: 5)]
